PMC6134028, “Mutant FUS causes DNA ligation defects to inhibit oxidative damage repair in Amyotrophic Lateral Sclerosis” (Nature Communications, 2018)

How the values were obtained:
[1] = molecular target: Flag-FUS-R521H (human) (UniProt P35637); assay: proximity ligation; PLA of Flag vs XRCC1, LigIII or PARP-1 in GO-treated SH-SY5Y cells expressing Flag-tagged WT or R521H FUS
[2] = molecular target: XRCC1/LigIII complex, purified from insect cells (UniProt P18887 1-633; P49916 88-1009); assay: cell-based or functional assay
Sequence of XRCC1/LigIII complex, purified from insect cells (P18887 whole entry, chain 1 of 2): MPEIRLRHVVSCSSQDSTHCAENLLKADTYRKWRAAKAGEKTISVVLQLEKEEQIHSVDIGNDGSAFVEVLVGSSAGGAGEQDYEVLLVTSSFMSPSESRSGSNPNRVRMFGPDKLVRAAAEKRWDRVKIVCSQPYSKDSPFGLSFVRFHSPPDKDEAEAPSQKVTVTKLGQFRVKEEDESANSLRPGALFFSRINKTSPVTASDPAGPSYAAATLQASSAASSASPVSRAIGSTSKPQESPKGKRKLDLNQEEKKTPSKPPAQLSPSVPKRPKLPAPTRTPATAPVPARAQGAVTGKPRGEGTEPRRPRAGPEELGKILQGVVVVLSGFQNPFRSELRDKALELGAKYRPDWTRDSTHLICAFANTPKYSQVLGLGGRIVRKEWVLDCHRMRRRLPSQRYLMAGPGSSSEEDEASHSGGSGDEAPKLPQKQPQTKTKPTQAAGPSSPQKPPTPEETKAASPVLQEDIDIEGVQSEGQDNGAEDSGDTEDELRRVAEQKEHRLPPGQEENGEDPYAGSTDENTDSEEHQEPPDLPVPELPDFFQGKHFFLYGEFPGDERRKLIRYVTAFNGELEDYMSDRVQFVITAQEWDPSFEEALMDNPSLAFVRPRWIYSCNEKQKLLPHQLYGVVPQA
Sequence of XRCC1/LigIII complex, purified from insect cells (P49916 88-1009, chain 2 of 2): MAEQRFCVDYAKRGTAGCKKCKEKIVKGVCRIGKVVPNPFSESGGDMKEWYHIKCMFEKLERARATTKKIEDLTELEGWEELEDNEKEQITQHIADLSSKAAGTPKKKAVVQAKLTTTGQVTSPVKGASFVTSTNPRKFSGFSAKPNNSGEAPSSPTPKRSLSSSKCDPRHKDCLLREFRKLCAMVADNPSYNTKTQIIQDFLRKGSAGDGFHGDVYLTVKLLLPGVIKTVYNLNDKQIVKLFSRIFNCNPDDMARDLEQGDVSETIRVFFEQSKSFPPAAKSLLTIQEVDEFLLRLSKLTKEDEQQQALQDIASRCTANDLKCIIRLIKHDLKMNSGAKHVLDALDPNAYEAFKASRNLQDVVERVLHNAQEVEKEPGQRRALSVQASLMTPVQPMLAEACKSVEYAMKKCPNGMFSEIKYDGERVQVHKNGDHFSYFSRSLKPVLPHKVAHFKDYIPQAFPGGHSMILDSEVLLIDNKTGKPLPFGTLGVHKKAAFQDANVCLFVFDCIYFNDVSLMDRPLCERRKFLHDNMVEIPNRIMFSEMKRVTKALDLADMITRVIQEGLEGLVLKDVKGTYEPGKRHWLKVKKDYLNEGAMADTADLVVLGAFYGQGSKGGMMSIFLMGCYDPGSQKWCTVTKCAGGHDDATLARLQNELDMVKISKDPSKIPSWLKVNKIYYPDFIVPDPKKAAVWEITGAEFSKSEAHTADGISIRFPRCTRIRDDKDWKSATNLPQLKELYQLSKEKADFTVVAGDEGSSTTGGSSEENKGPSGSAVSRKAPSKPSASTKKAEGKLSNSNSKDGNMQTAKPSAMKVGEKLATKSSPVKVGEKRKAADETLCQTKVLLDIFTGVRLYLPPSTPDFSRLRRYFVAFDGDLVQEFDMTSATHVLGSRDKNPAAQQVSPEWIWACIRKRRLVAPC

[3] = molecular target: T1, PARP-1, His-tag protein, purified (human, UniProt P09874 1-1014); assay: pull-down; GST-FUS with the partner at 4 C overnight on glutathione affinity gel, washed three times with TEN buffer (20 mM Tris-HCl pH 7.4, 0.1 mM EDTA, 100 mM NaCl), immunoblot; for XRCC1 also in the presence of PARP-1 and NAD+ (PARylation enhanced the interaction); conditions: both partners purified
T1 construct: human PARP1, recombinant; also called human PARP1 purified protein; source: expressed as His-tag protein, purified (Ni-agarose column, cation exchange)
T1 sequence (P09874 whole entry): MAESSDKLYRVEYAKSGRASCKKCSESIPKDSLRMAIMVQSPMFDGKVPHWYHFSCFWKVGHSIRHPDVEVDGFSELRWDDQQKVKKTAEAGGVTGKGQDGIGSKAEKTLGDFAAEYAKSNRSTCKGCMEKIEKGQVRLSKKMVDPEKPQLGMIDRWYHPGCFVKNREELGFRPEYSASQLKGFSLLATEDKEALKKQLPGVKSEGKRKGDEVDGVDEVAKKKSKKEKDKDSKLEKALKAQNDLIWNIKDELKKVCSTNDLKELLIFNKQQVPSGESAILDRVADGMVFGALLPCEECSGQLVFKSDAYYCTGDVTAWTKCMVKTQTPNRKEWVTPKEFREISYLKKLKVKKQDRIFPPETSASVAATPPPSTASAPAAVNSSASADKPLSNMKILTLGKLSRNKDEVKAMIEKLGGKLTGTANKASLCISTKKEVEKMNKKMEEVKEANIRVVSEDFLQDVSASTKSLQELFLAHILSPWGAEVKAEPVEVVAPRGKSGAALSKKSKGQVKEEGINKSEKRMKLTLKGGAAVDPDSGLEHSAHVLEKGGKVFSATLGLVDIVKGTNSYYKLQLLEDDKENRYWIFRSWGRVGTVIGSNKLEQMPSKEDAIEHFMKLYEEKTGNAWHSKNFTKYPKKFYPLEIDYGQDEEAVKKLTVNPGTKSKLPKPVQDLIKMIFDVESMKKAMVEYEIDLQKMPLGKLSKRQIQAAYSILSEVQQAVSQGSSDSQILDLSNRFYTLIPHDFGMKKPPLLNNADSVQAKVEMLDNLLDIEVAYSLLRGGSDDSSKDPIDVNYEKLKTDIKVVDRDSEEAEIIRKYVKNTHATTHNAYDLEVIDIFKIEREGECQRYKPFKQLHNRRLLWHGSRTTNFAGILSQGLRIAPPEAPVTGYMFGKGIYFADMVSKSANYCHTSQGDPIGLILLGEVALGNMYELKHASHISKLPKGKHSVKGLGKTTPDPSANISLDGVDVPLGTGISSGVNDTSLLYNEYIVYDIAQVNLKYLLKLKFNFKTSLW

Molecule: DNA Ligase IIIalpha (LigIII), endogenous (from UniProt P49916 43-1009) (enzyme)
- percent reduction of PLA association against WT FUS [1]: > 80%

B1: GST-FUS (natural protein, human, UniProt P35637 1-526, looked up)
chain: MASNDYTQQATQSYGAYPTQPGQGYSQQSSQPYGQQSYSGYSQSTDTSGYGQSSYSSYGQSQNTGYGTQSTPQGYGSTGGYGSSQSSQSSYGQQSSYPGYGQQPAPSSTSGSYGSSSQSSSYGQPQSGSYSQQPSYGGQQQSYGQQQSYNPPQGYGQQNQYNSSSGGGGGGGGGGNYGQDQSSMSSGGGSGGGYGNQDQSGGGGSGGYGQQDRGGRGRGGSGGGGGGGGGGYNRSSGGYEPRGRGGGRGGRGGMGGSDRGGFNKFGGPRDQGSRHDSEQDNSDNNTIFVQGLGENVTIESVADYFKQIGIIKTNKKTGQPMINLYTDRETGKLKGEATVSFDDPPSAKAAIDWFDGKEFSGNPIKVSFATRRADFNRGGGNGRGGRGRGGPMGRGGYGGGGSGGGGRGGFPSGGGGGGGQQRAGDWKCPNPTCENMNFSWRNECNQCKAPKPDGPGGGPGGSHMGGNYGDDRRGGRGGYDRGGYRGRGGDRGGFRGGRGGGDRGGFGPGKMDSRGEHRQDRRERPY
notes: FUS in pGEX6P-1, plasmid purchased from Addgene; The FUS of the ligation assays is named only 'purified FUS'; also called purified FUS; recombinant FUS; source: E. coli BL21, purified (glutathione-Sepharose 4B)
- catalytic efficiency of LigIII in the nick ligation reaction of XRCC1/LigIII with or without FUS [2]: 4 fold
- in vitro DNA nick ligation by XRCC1/LigIII complex (100 f.moles) with FUS 10-500 f.moles; fold change in ligated product [2]: ~5 fold
- binding result [3]: binds
